These results are taken from US20220256794A1, “TERPENE SYNTHASES AND TRANSPORTERS” (The State of Israel, Ministry of Agriculture & Rural …, priority 2019, published 2022).

The nature of this assay: Terpene synthase activity assay with FPP. The assay is classed as biochemical. Particulars: TPS expressed in E. coli; 10 μM FPP, overnight at 30° C., SPME GC-MS. How it is done: Putative terpene synthase genes were synthesized by the TWIST Co., and cloned into Novagen pET-28a(+) with a 6×His tag at its' N-terminus. The recombinant plasmid was then sequenced for authentication and transformed into BL21(DE3) pLysS and pLysE strains of E. coli (Agilent Technologies) for heterologous expression. An overnight culture was used to inoculate a 20-200 mL culture, induced with 0.1 mM IPTG at an OD 600 nm >0,8 for initiation of recombinant protein translation then incubated at 18° C. and 250 RPM overnight. The cells were collected by centrifugation and the recombinant enzymes were extracted either as a crude extract or purified on a Ni-NTA agarose resin as previously described [Gonda I. et al., The Plant Journal (2013) 61, 458-472]. […]
For solid-phase microextraction (SPME) analysis, a 57298-U SPME fiber assembly Divinylbenzene/Carboxen/Polydimethylsiloxane (DVB/CAR/PDMS, Supelco) needle size 23 ga, StableFlex, was used with an autosampler and analyzed by GC-MS as previously described [Davidovich-Rikanati R. et al., Nature Biotech (2007) 25:899-901; Davidovich-Rikanati R. et al., Plant J (2008) 56:228-238]. […]

B1: 792-3: Cannabis terpene synthase gene product, amino acid SEQ ID NO: 8 (protein)
chain: MSYQVLASSQNDKVSKIVRPTTTYQPSIWGERFLQYSISDQDFSYKKQRVDELKEVVRREVFLECYDNVSYVLKIVDDVQRLGLSYHFENEIEKALQHIYDNTIHQNHKDEDLHDTSTRFRLLRQHGFMVSSNIFKIFKDEQGNFKECLITDILGLLSLYEASHLSYIGENILNEALAFTTTHLHQFVKNEKTHPLSNEVLLALQRPIRKSLERLHARHYISSYENKISHNKTLLELAKLDFNLLQCLHRKELSQISRWWKEIDFVHKLPFARDRIVELYLWLLGVFHEPELSLARIISTKVIALASVADDIYDAYGTFEELELLTESINRWDLNCADQLRPECLQTFYKVLLNCYEEFESELGKEESYKVYYAREAMKRLLGAYFSEARWLHEGYFPSFDEHLKVSLISCGYTMMIVTSLIGMKDCVTKQDFEWLSKDPKIMRDCNILCRFMDDIVSHKFEQQRDHSPSTVESYMRQYGVSEQEACDELRKQVINSWKEINKAFLRPSNVPYPVLSLVLNFSRVMDLLYKDGDGYTHIGKETKNSVVALLIDQIP
modifications: Terpene Synthase Gene Amino acid sequence of the 45 identified gene products
With B1, the “Sesquiterpenes produced with FPP” value is recorded as “caryophyllene, humulene”.

B2: AG046-1: Cannabis terpene synthase gene product, amino acid SEQ ID NO: 36 (protein)
chain: MIITGVISSSTPIFKDQPAAIVRRSGNYKPTLWDAHFFQSLQVIYTEESYGKRINELKEDVRRILEKEAENPLVKLEQINDLSRLGISYHFEDQIKTILNLTFNNNNALWKKDNLYATALHFKLLRQYGFSPVSSEVFNAFKDEKKEFKESLSKDVKGMVCLYEASFYSFRGEPILDEARDFTTKHLKQYLMTRQSQFTRVDHHDDDDHDLVKLVEHALDLPLHWRLPRLEARWFIDMYAERNYDMNPTFLDFAKLDYNFVQSAYQKELKYISRWWSGSRLTERLPFARDRVVEIFYSAVALKYEAEFGFVRTVMTKIGLLLTLMDDIYDVYGTLDELQLFLEAIERWNINELDQLPDYMKILFVAFYNNVNEISYYVLKENGIHTIKYLKKALGDLCKCYMEEAKWFHSGHIPSLEEFIENGWKSITIPLCLIYHYCLITTSITEQDMEHLLQYPTILRVSGTVFRFIDDLGTSSDELERGDNPSSIQCYMREKGVSENESREHIWNLISEGWKEINEVKASNSPYSQVFIESAIDFVRGAMEMYHKGDGFGTNQDRYLKTKVVNMFFDPIPI
modifications: Terpene Synthase Gene Amino acid sequence of the 45 identified gene products
In the case of B2, the “Sesquiterpenes produced with FPP” value is listed as “bisabolene”.
